Assay results as given in paper PMC3830488, “WRKY76 is a rice transcriptional repressor playing opposite roles in blast disease resistance and cold stress tolerance”.

T1: MBP-OsWRKY76 (Oryza sativa (rice), UniProt Q6EPZ2 1-327)
T1 sequence: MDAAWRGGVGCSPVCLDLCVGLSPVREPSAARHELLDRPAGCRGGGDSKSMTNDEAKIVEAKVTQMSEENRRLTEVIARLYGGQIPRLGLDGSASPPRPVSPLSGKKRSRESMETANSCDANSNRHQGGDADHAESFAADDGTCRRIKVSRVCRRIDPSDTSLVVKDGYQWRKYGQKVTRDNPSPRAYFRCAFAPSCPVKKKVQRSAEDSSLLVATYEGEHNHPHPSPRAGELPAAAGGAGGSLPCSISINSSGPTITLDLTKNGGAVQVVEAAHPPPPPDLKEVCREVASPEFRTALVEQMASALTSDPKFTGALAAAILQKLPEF


Key:
[1] = biological target: T1, MBP-OsWRKY76; test: EMSA; DIG Gel Shift Kit 2nd generation (Roche); buffer, salt, pH and temperature not stated; settings: protein: recombinant; tags: MBP (N-terminal, pMALc2x); label: DIG
[2] = biological target: T1, MBP-OsWRKY76; test: competition; excess unlabelled mWB vs DIG-WB; DIG Gel Shift Kit 2nd generation (Roche); buffer, salt, pH and temperature not stated; settings: protein: recombinant; tags: MBP (N-terminal, pMALc2x)
[3] = biological target: T1, MBP-OsWRKY76; test: competition; excess unlabelled WB vs DIG-WB; DIG Gel Shift Kit 2nd generation (Roche); buffer, salt, pH and temperature not stated; settings: protein: recombinant; tags: MBP (N-terminal, pMALc2x)

| Binder | binding result [1] | other results |
| --- | --- | --- |
| WB (W-box probe) (dsDNA) DNA 1: AACTTTGACCAATCTTTCAAGTA DNA 2: TACTTGAAAGATTGGTCAAAGTT | binds |  |
| mWB unlabelled competitor (dsDNA) DNA 1: AACTTTGAACAATCTTTCAAGTA DNA 2: TACTTGAAAGATTGTTCAAAGTT |  | binding result [2]: no binding |
| mWB (mutated W-box probe) (dsDNA) DNA 1: AACTTTGAACAATCTTTCAAGTA DNA 2: TACTTGAAAGATTGTTCAAAGTT | no binding |  |
| WB unlabelled competitor (dsDNA) DNA 1: AACTTTGACCAATCTTTCAAGTA DNA 2: TACTTGAAAGATTGGTCAAAGTT |  | binding result [3]: binds |
